Source: the domain aggregation screens of Martell et al. (2025)

Assay: soluble fraction after stress (log2 fold change); higher = more stays soluble; pooled small domains, quantitative proteomics
Settings: stress: pH 4
Procedure, shortened: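 Aggregation propensity is read out as the fold change in how much of each domain remains soluble after acid stress. The custom small-domain libraries were pooled, held at pH 4 and analysed with high-throughput quantitative proteomics. On the log2 scale used, higher values mean more of the domain stayed soluble.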

Row | Sequence | soluble fraction (log2)
1 | HMDNPLSQQEKRILQLISLGKTNQEIADILYLSNGTVRNYISSILNKLSANNRVEAARIAEEHGW | -0.929
2 | HMGRFPSLTPVVIDALTAQYREHPGWTVQLHVDNLRVVLAANQTPLPSYPTIRRYLLAQGMRRQTRP | -0.176
3 | HMYSDERLQTFMELLPFFVEELSNKHVTRYNVWQNYREAYPNGYGRSQFFFHLGQNLEAKKK | -0.0353
4 | HMSEYTRGELVSSLEAGEVAAVSIRPNRETPTGEAQIVLSDGQHRVLYVTDVREIEELVSSYGLNPQVEK | -0.233
5 | HMVKPKIILADIGMITETDVTLAKASQAVLIAFNVKPSKEAKKLAEDENIKISTYNIIYEVLDFVKKSMSG | 0.0492
6 | HMEGDAFAFTGDIQKDLLSITAVHPMRREAVDALIAKAGASWAIVEKLLAHGELTEAKHDGHLFYLRKF | -0.354
7 | HMPLRPNQRQFIHLMVYQGLDRNEAYAQANNKVLTEENYESIRTAAAKTFYTPHVNNYYHALMEEIRDRE | -0.404
8 | HMQKEMDIVLQINGKMRSNLKVSSTANDDEIIKTAIESDAYKKFSLGLRIQKTIIVPNRLINIVLEK | ≥ 0.43
9 | HMLMLTPGQVSNSLNVSTATVRRWSARFARHLSPQPPNRKRSYTPDDLATLARVRDLSASGTSLAQIDIAL | -0.29
10 | HMQAATGVVTASVLNIRQGPGTNYTKVGSLLKGAQVEIVGQNGAWSKIRLKSGITGWVNSSYLKTST | -0.085
11 | HMFDPTDLPEKQLMVYEIIKSNNGINMTNIASLLGFNKTTVDNAIRALKKKEIVVFKGTNRSGGYFNT | 0.193
12 | HMINLRTALNNAGVMQKELSDILYMTPQDVNRRFSGVTKWKPLEKRAIMQFLEDRGFEYTEEQLF | -0.883
13 | HMNIKYDFPTNSPLEMMRNLFDSNSQIINDLKDGFAMANSLNEQGLANFFAERIDKHQFWSWQLSASL | 0.177
14 | HMRRRTLRQGATGSDVHAVQRLLNVDGAGLRTDGIFGPATERAVIAYQRKHGLAVDGVVGRETWTALLG | -0.0548
15 | HMIEINNLEDLKLMKEFILKNGKYGFGVFVGGKYIGLSDIGSVNSFKDTLGLPVVSLGNDDFKRFTEAH | -0.653
16 | HMQASTGNVNTETLNLRKEASTSADILKLLSQGDEVEIVSESNGWYKVKYKDTEGFVSKEYITVN | -0.159
17 | HMFLPETEVKSFFHRGITKISPSLAMDIADFFRMPFAVILKRALALEVISDEQYRSFMTVKPEHV | -0.0531
18 | HMQPTVEGLMKALETMTFNERTALALHYGLTGRQPMTFMAIGRYLGISDGRAEALVNSAIRKLR | 0.0497
19 | HMGAGKVVDGVTYDFVFDVDVADGQPPLRLPYNRGEDVYQAAERFILRNELPATYREQIVNFIVQNTPG | -1.79
20 | HMKDEGSLKVIGQMVVIGIPQSEAKRFANTYTVAQIRAALQYTQKRSEDKNASKLENVAAYFRQALVRNWG | ≥ 0.43
21 | HMPMDDETWDALSLFAYKRYARENGWPLMIGAEALRDTFASYFPLDSSTWQDRSSHYLTYQDGIYTRT | -0.753
22 | HMAANKIDEDRNTELLQVIQNKFPDADAATKKSVKEIMKEHDIPNFKNADDIPTAVLEQIVKVLNQ | -0.128
23 | HMNADSLIGENIRISERVSNMDQTGMAVVHGQEWTVRTRNDNEIIEPGEEAKILAISGVKLIVEK | -0.0665
24 | HMYPIYDYISNMYLGKHLNAGMSLEEARGIMDEMLEKLLFDVPEEYHIDRDHFYEYLKKYYTERFSA | -1.7
25 | HMLKTADAIASVLLTRIQAGEFSAGRLPAERALSEAFSTTRITLREALGKLEAQGMIYRELRRGWFIA | -1.3

Row | Sequence | soluble fraction (log2)
26 | HMAFDESLVRSIQELLSELGYSPGKIDGLLGAKTVAAIKAFELEINKDQLTGEPSEELLIALQLAIRSSKM | -0.968
27 | HMLYKNIAKKLRFRINSDEFAIGDVLPTERQLMEEYQASRVSIRKAIDELVAIDLIEKKQGSGTYIKQKEV | -0.493
28 | HMSMNGNMIHATVIWKGRYFLVKMFFPQLTKPKRAEVQAQIEKAYPGSRVASYHITDYKPGEQFLHV | -0.156
29 | HMKTGTTGLIGEIGVVKKALTPEGKVFVHGELWRAVSKTASPEGTLVQVIKINNLVLEVEKV | 0.0324
30 | HMLFQGDTPAENIILEILSKNGTTASDSIIKQSGLSVSDFNQAATMLEIKGLISNNGGNIWSL | -0.254
31 | HMIEYYDDEELDVFKGRQSDNYTNKEIEQFAEVLHTMRQDEVKGWNRSLILRSINLPDSLKDEVIMLI | -2.53
32 | HMEDAFLQRLISIIEANLSNVDFNVKMLAEQLNMSQPTLYRKVKQRSELSVIDMIRSIRILSLIHISEPTR | -0.919
33 | HMISFTDLEHIEKMIENVLYTKTPLNLPPTDAKIRKIEHQIARRYGLNSESFGDEPRRFVVVYPNEERE | 0.0997
34 | HMTEKEEERTEDLNYYRLNLISMLKSSYPEYLDDEEFISNRSQEAAEAFEDAVRSGSNYLDASAESNRTLY | -0.717
35 | HMENLSGNDIKYLRKKYNLTQKELADALGLQKFGDRTIRRWEAEETHPSKLEQSSIQSFFNSLK | 0.111
36 | HMGKRKDFTYTGNYFSEYKNQTFPSLSSFLKLVGKYENYGTIKRRVRFGWDIDEAILRENIN | -0.231
37 | HMANKLTSTNLAKQHKMGLSEMYAELMNSGYLIEKDGKYELTPLGISIGGESKPNRYKKGEFYFLWPSDIS | 0.22
38 | HMIQHFARKRRQLELAVQRLSGRMAETNGQVTADMQRLIQQVKALVAELSHVFSRAYLRRVLGGVALVIGS | -0.145
39 | HMPNPSAGRVHIDALLPFDRVEVTDMQGSLLLDHSFSPRRAVDLDLNARGTLLYTLWSKGHLLGKGRVVR | 0.213
40 | HMDEYFNPETVVHYLRELFDTYRENGGNPFEWFHSTFESVNLNPQNYRKDLITTIEKALIEWIEIFEKQ | -0.553
41 | HMPKKLIWERTTSKLQLYITQDRYELKTPLMTIPFTSKSKMMVYLQQRYHLDMQEYRQIYDAG | 0.0815
42 | HMSGDKKLQMNLILEFAQQNESFRTKDIEELLQIRSSRARKLISDLVTEGRLEALGENRNRRYQLI | -0.329
43 | HMDSKPNDLLFVYVSQLIRSLTLNSSKKDSELADELEVSISQIRIWLKKLINEQLIVKESKPVKYRWKG | -0.327
44 | HMELMKPPGYWQSLENAIYESKKVIKEHGFDTLPSSNKLRELDYHGLSRAISVHHSGFPNFREIMNQELGI | -0.0528
45 | HMISRDPYDAGAIKRHFSASGLFSSKELAHYLGKSVSTAKNVLSDLQQQGIVEMVGQGPATKYRFI | 0.285
46 | HMERPKSLRELALEHLRNSIIDGSLKMGQVLSERKISEELGVSKSPVREALAQLRDEGLVSIEPQKGARV | 0.288
47 | HMLKGTVKWFNESKGFGFIEQEEGKDVFVHYSAITGSGFKTLNEGDKVQFEIVDGPKGPAAANVSK | -0.927
48 | HMVIGKHSGSHTLVNDLAKRGITLDKEESATLLEMVRKAAVGLHRSISSDELYGLYKDMKSGQDPFEDS | 0.14
49 | HMERLLVSKINGMITEAKVSVEDVVKVVASRGHYPEVKSIDEYPDDFLSRWVVPNFKKIVEMINANKEA | 0.239
50 | HMSENLESEFFGIVVITQTLLQKELRDKPMTVELIRKTVEDVMSKHYSDSSVDKAKVEEELIRRFSTW | -1.75

Row | Sequence | soluble fraction (log2)
51 | HMSLPQSKDAVITILRTLPQLDTRAPEVYKLLGPHALDIILEDPEQVAKKINHVGVATAKLWQQALLGFK | 0.198
52 | HMTEQLTLVGKTGVTTTDLRPSGKVEVDGKRYDAVADNGAFISKGAHIKVVRYVTGQVYVVPTD | -0.146
53 | HMSKQVDVVIYILENTKAADNTYIGTYRKTADGAGVSLDTATKVMRKLQENNFIKKVQNGVYQISPLIMM | -0.519
54 | HMQISDESSIAKIADEVISEFPSQVSEFRSGKEKVLQFLIGQVMKKTKGKANPQITAKILREKLS | 0.17
55 | HMLTKSELVFDTLKKRIIDGELEPGTELVISRISEEFNVSTIPVREAIKTLASEGLVEMEPHKSAKVAE | -0.0422
56 | HMLDEKFLSELMLALLRNHRRGLRAEVLLHKVRSNMELDGYKSLLVGVGRMEMWELAREIIDFVKAEG | -2.07
57 | HMERFRQVNAGMTRDDIYQLLGKPTEKTPFPLKNEEVWSWRHQADGQTVALFNIHLDPDGRVTTTSQSMDL | -1.32
58 | HMVRGNLAEELLKLREEEGISFQEAGARSGIARSTISQVVNQGLRLKPNQEESLWRVIEEVRGVKER | -0.0263
59 | HMTSSKISFIDPVNGGKVSVSLENSTLEKLQNRFGVNSVVRNEAGDVELKDKAQEFVAGWFADIAYTRG | -0.89
60 | HMDLEMLEVEDTIKDLLSQHQKINAIKYYRNYMSEQLNVDMGLRQAKDTIDAIGRGATVDLSVGY | -0.783
61 | HMSGEPKNERQIEVPDVTKKSIREANNILTSEGLRLRIEGTGLAVSQKPAAGTMVEPDTIITVTFQAP | -0.0704
62 | HMNVSVSITKELQVYINDERISSSALESTLKSKLAGIENPTIILRAEEGVPIEKAVNVMDIANRNRYKIVL | -0.969
63 | HMDMTPEEFLAWARHKPFGDPFPKTQTVTFLVPLLGVSRTNIFTWISGKVNPSKTSLLLMEALKRENR | -0.444
64 | HMDSIDIDAETKSLGPNAPQIIKGIKEWGQGLVAKGVWSDQDFEEFKVFAATANGINALNKVRKFY | -0.192
65 | HMNPKTELMVYLKKRDEWVASQILSDVLQVSTRTIRKFVKEINMDYQTENVILSSSKGYKLNQNLLSSL | -0.281
66 | HMLDQAVPVFETPKYAVSYIQNRLVEMKAASPEEAASRFYESISESERRGLFEALLIKEAEES | -0.821
67 | HMKLTTRQTEIINIVKAEQPISGEKIAQNLGLSRATLRNDLSILTMTGLLDAKPKVGYFYTGQ | 0.0805
68 | HMEAYLPVTVVSDGKILTGNLEKAGKNEKWLENVLSELKTDVKNTLLLTVDPKDGLIFYPKG | 0.0447
69 | HMGGRRHANMSREEEAAFLAPFFEKAAQGGILVVREIRQALDAHLGRTVPLSTVYNLLHRHNWRKL | 0.379
70 | HMSSVHTMEVKSTTQIKVLDENKNLSSYYSMKNPVSFNYRLFFLNQDELKKLQEDLKTNNDIQSIDIKYA | -0.944
71 | HMTPYEVLVYESLKQKILSGGYAAGEKIPEQSVSEELGVSRSPLRSAIRRLASEGLIEYYPYRGAFVKA | -0.751
72 | HMNASTVTLENFEGAKYDDVYGKYDYQFSVTYEQTDKYESGVIISQKPEAGTKIIKGSQVSLVVAT | 0.101
73 | HMIINKFERRKEIQIQFNNQERIKFKDFFLNLSKENIIVSFLILLELVRESLIDFSGTNENDIEFFIK | -0.834
74 | HMEQNTKAYEQVRTLTDLLNQYRHEYYNLSAPSVSDQEYDRLFDALAALEKQTGIVMSNSPTQTVG | -0.497
75 | HMQYDESSQLGERFLNQALNALKADPDKVGDAQWEKLLKENSAKSRQEVLADIGLGKQLAIVIARELLS | -0.37
